From the DeepSol protein solubility set come the findings set out here.

This series is described as follows: soluble on expression in E. coli; label from the status in PepcDB or PDB records.
In the case of “MGSDKIHHHHHHMRRLPPLNALQIFETVARHRSFTRAADHLCLTQGAVSRQIIALEDYYKFPLFKRHAKGLTLTAEGELLLPAVKESFARIEEISLRLTRQRTDLALKVPTCVMRWMLPKIMRFQAEYPELHVQITTTWQHDVDFQLEPFDAAIIYGSSPGADVQAVPLFEERLTPVCAPDLLKDKPLAELADLARHTLLHPTRDHRDWKMWLARVTEMGAANAPVIDAEHGPSFDTLDMATNAALQGFGVAISDLALIDEDVAAKRLVRPFDTVLKTGWRYYFVYPDSVAHQQKLNLFRDWIAAHWEE”, the “soluble on expression in E. coli” value was “not soluble”.

Turning to “MSLGFHEVRFPASLSFGSVGGPERHTDVVTLANGHEERNTPWAHSRRRYDAGVAMRGLDDIETLIAFFEARQAQLHGFRWKDWSDYKSGPALAEPAYHDQIIAIGDDVTASFPLIKAYRSGEQIYRRPITKPVAGTVRIGLSGDEQQEGVHYEVDTTTGIITFAHPPNEGLEITAGFEFDVPVRFDTDRIQTSVASFQAGDMPNVPVVEIRVEGHHHHHH”, the “soluble on expression in E. coli” value is given as “soluble”.

Take “MSLLNEENNFYNVDLLDLLKDSNEAVLPYKRIRFRRNQKILTEGAETTYFYIIEDGVVSMSKNTCKEDSIISFLGKQDSIGPLTLLGGAKSPANYTSISEVSVYQFERKYVLNKLLSSPDVFWQMNSLMQSMVSPMLEREAYVNLPSSEKVLAGLIACGERFGRIESDGSCLIPYYFTQKILGNYLNLARAYVATNLRKLEEDGVISLSPKPWRVKNFDVHRQKLKDNYKPYI”: the “soluble on expression in E. coli” value is on record as “not soluble”.

Consider “QVQLQQSGAELVRPGVSVKISCKGSGYTFTDYGMHWVKQSHAKSLEWIGIISTYSGDASYNQKFKGKATMTVDKSSSTAYMELARLTSEDSAIYYCARSSTWYYFDYWGQGTTLTVSSAKTTAPSVYPLAPVCGDTTGSSVTLGCLVKGYFPEPVTLTWNSGSLSSGVHTFPAVLQSDLYTLSSSVTVTSSTWPSQSITCNVAHPASSTKVDKKIEPR”, for which the “soluble on expression in E. coli” value was “soluble”.

“METPMHDEEESDSLNTSHLSDVELDDLVTTKFVEEFKNLKIADDSLEVVRDVGSPLNQALSPIERRNSDEFLLEDHPSLVRPIKDIFQRDEAMLLKNRILDASDEILKTNFMWNMFERSKKWRNTSHSSEVSLLDSLFQMVDRRPVLLHISCSRLTENDISCMIRKSLLDVAAQPRQKTVFRVTIKTEMPLKQFLGQLAMLLSTSPTIKFECAPVTALMKNLDGSMRKFYTAEVENFAEAELGLLSMSHLSPMNASARFKFTMNEKPFVTVNVGYHSNIDQCRRQKTIVIEQTVDGTVPARRVTFGFPLVSRVEEYELDEGLPFIPLRNSTKVFDLSQHFGNVQALPKVLDLKNIVFK”: the “soluble on expression in E. coli” value was “not soluble”.

As for “MAEPLFDMSATGRPRILILGGTTEARQLAERLVSEPHYDTAISLAGRTADPRPQPLPTRTGGFGGAEGLAVFLRERNIALLIDATHPFAARISLNAAAAAKMTGTPLLALRRPAWAAEPGDRWTCVGSVAEAVPALGEAPRRVFLAIGRQEAFHFERAPQHSYVVRSVDPVMPPLDLPDVTAILASGPFAQADETELLERHGIDVIVAKNSGGAATYGKIAAARQLGIEVVMVERHKPADVQSVGDCDEALERIRQWLSPVKDRGV”, the “soluble on expression in E. coli” value is recorded as “not soluble”.

On to “MGSDKIHHHHHHMYTFQPGDHLVTNIDPLGLTEHHGLYVGHGHVIHLSKQGIIEEINLQQFAGGHSVRVKKSTLFPHQAIELARSQLGHSPYGVATNNCEHFVNECLEGSSTSNQVSNLTHIALQGSARAGLLGSSASKLATGTVANVVLTSTAIKMTGEYLGLPDNVNTLLGTPGDLVAKPAECLLKGTSQTLGETYTCLRQGEMTGAGIKLVTGSIETGLNTVLTTAEVGINGVKAGAELIADAWHWLRS”, for which the “soluble on expression in E. coli” value is listed as “not soluble”.

As to “MKKVLITGFEPFGGDSKNPTEQIAKYFDRKQIGNAMVYGRVLPVSVKRATIELKRYLEEIKPEIVINLGLAPTYSNITVERIAVNIIDARIPDNDGYQPIDEKIEEDAPLAYMATLPVRAITKTLRDNGIPATISYSAGTYLCNYVMFKTLHFSKIEGYPLKAGFIHVPYTPDQVVNKFFLLGKNTPSMCLEAEIKAIELAVKVSLDYLEKDRDDIKIPL”, the “soluble on expression in E. coli” value is on record as “soluble”.

In the case of “SLHAAKDEVRSRLMPINRAYNVEKLIEAIQYYQEKTNRRVTFEYGLFGGVNDQLEHARELAHLIKGLNCHVNLIPVNHVPERNYVKTAKNDIFKFEKELKRLGINATIRREQGSDIDAACGQLRAKERQVETR”, the “soluble on expression in E. coli” value is reported as “soluble”.

Turning to “MSLVPRIAVLGCGHWGGNHIRTLQSLRALAAVSDVDSDRAASFASLYGVDAVAPDDLFTRRDIDALVLALPPQFHTENVLRAVKNGKDVLVEKPIALDVVDAECQVQAAREYGRILMVGHILRFHPAFEKISELVENGELGDVCYIYSHRLGFGKFHTQSDALWDLAPHDLSMILALTGCEPSEVRGEGAAVIDQCSDFAHIHMAFPNGIRSHLFASRLSPYRERRLMVVGTKAMLVFDDMEPWSRKVAFHPFAVWKENQEWAFSTDELSYINIYEDLPLTCELKHFLHCIETRQSPRTNGDDALAILRILTAAGVNYQKEGHHHHHH”, the “soluble on expression in E. coli” value is reported as “soluble”.

On to “MALETPTPGPPREGQSPASQAGTQHPPAQATAHSQSSPEFKGSLASLSDSLGVSVMATDQDSYSTSSTEEELEQFSSPSVKKKPSMILGKARHRLSFASFSSMFHAFLSNNRKLYKKVVELAQDKGSYFGSLVQDYKVYSLEMMARQTSSTEMLQEIRTMMTQLKSYLLQSTELKALVDPALHSEEELEAIVESALYKCVLKPLKEAINSCLHQIHSKDGSLQQLKENQLVILATTTTDLGVTTSVPEVPMMEKILQKFTSMHKAYSPEKKISILLKTCKLIYDSMALGNPGKPYGADDFLPVLMYVLARSNLTEMLLNVEYMMELMDPALQLGEGSYYLTTTYGALEHIKSYDKITVTRQLSVEVQDSIHRWERRRTLNKARASRSSVQDFICVSYLEPEQQARTLASRADTQAQALCAQCAEKFAVERPQAHRLFVLVDGRCFQLADDALPHCIKGYLLRSEPKRDFHFVYRPLDGGGGGGGSPPCLVVREPNFL”, for which the “soluble on expression in E. coli” value is recorded as “soluble”.

As for “SYVQDYRSPFIASVSDQHGVVYITENKNKTVVIPCLGSISNLNVSLCARYPEKRFVPDGNRISWDSKKGFTIPSYMISYAGMVFCEAKINDESYQSIMYIVVVVGYRIYDVVLSPSHGIELSVGEKLVLNCTARTELNVGIDFNWEYPSSKHQHKKLVNRDLKTQSGSEMKKFLSTLTIDGVTRSDQGLYTCAASSGLMTKKNSTFVRVHEKPFVAFGSG”, the “soluble on expression in E. coli” value was “soluble”.

For the sequence “GPGSMSERDKQRRSLERERMATVIFSYISHLMRTHEEETTVADEFIPSTKFFRTETLPNISLIHYVRRVVEHMNCSPEAYIFALAYIRRLFVAGFPLHTHSIYRLLLTAVVVATRVRDDFLFSKKYYSKVGGVTACDLNMMEIHFLADLLEYRVEVSPDEYRVLCNEITALLSSEVSKFDGNSSNPNNDTAAEGVASIQEPVGNSKPRWMSECCLYW”, the “soluble on expression in E. coli” value is on record as “not soluble”.

For “MSHSAKKALLPLLAVATLAGLAGCATETSTALPVQQVESVNRPYSGVRSPIAVGKFDNRSSYMRGIFSDGVDRLGGQAKTILITHLQQTNRFNVLDRDNMSEIQQEAAIKGQAQRLKGADYVVTGDVTEFGRKEVGDRQLFGILGRGKSQIAYAKVALNIVNISTSEVVYSTQGAGEYALSNREVIGFGGTASYDSTLNGKVLDLAMREAVNKLVNAVDSGAWKPQNQ”, the “soluble on expression in E. coli” value is on record as “not soluble”.

For the sequence “MGHHHHHHSHMGKQKKTRKYATMKRMLSLRDQRLKEKDRLKPKKKEKKDPSALKEREVPQHPSCLFFQYNTQLGPPYHILVDTNFINFSIKAKLDLVQSMMDCLYAKCIPCITDCVMAEIEKLGQKYRVALRIAKDPRFERLPCTHKGTYADDCLVQRVTQHKCYIVATVDRDLKRRIRKIPGVPIMYISNHRYNIERMPDDYGAPRF”, the “soluble on expression in E. coli” value was “not soluble”.

As for “MKLPKEGDFITIQSYKHDGRLHRTWRDTMVLKTTENAVIGVNDHTLVTEADGRRWVTREPAIVYFHKKYWFNIIAMIRDNGISYYCNLASPYVLDQEALKYIDYDLDVKVFADGEKKLLDVDEYEIHKKEMHYSPDIDYILKEHVKILVDWINNGKGPFSQSYVNIWYKRYLELRNR”, the “soluble on expression in E. coli” value is recorded as “not soluble”.
